Measured values published in the supplement of paper PMC9170038.

tested on: K4 kissing-loop RNA reporter; test: apparent KD of K4 kissing-loop reporter; higher = weaker reporter binding; conditions: Eterna round: R107; input ligand: FMN 200 uM
Protocol: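 RNA-MaP round R107: designed RNA switches with theophylline, tryptophan, arginine or FMN aptamers are transcribed on-chip within common flanks. They are titrated with a labelled K4 kissing-loop RNA reporter in RNA-MaP buffer (100 mM Tris pH 7.5, 80 mM KCl, 4 mM MgCl2), without ligand or with the indicated ligand. Median apparent KD per design.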
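Further: bound reporter read as fluorescence of individual clusters on recovered sequencing chips by microscopy, with normalized cluster intensities fitted with a binding model.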

Going from “AUAAUUAUGACGGCCGCCACUGAGAGUAGUGAUGUUACUCUUUUCCUUUAGUAAUAAUUUUUUAUCAGGACCGGGUUAUUUGAAU [JR_Nu_ExcTryptoB_Sub027]” to “AAUAAGGUCGCCGAUACCAGCGCAGGCAGAGCAAAGCUCUGCCGGGUAGUGAUGUUACCGCGCCCUUGGCAGCGGUGGCACGACC [Omei KL Theo B SS C v1]”, the “apparent KD of K4 kissing-loop reporter” value rises from 68.7 nM to 579 nM (8.4-fold).

Compared with “GCUGAGGAGUGAUGUUCCAAGUGAUGUUAACGAGGACCGGUACGGCCGCCACUCGAUACGGCCGGACCGUAAGAUAAACUACAGC [Same State - Tryptophan A (Freestyle 7)]”, “UCAUGUGCCAGUGAUGUUGGCGUACGUGAUACCAGACGAAUAAAAGUCCCUUGGCAGCACAAAUAAGCCAAGAUAGAUGAAUGAU [Exclusion Theophylline A GF 1]” is 2.4-fold lower in “apparent KD of K4 kissing-loop reporter” value: 316 nM for the first, 130 nM for the second.

“UGGAUAUAGUGAUGUUAUAUAGAGAUAGAUACCAGUUAAGAGAAUAGCCCUUGGCAGCUGAAAGAAGUAUCAUUAGAGAAGAAUG [ExTheophyl.Ab]” and “GCCGUAGAUUGAAGGAGCGUGGAACUAUGGCUUGAACAGUGAUGUUGUUUAUCUAGGUAGCCGCAGGUAGGUCGCAAUCUACGGC” are within 1.5-fold of each other in “apparent KD of K4 kissing-loop reporter” value: 212 nM for the first, 263 nM for the second.

Compared with “ACCUACCAUUAGUGAUGUUAAUGGACGGAAGGAGCGCGGAUAUCUGCAGGUAGGUCGCCGAAGGCUAGACAUUGUCUAGCCAUUA [AK1 SS Arginine A]”, “UUUCUUUUAAUAACACUUUAUACAACUGAAGGAGCGACAAUAAAGUCAGGUAGGUCGCAGAAUUAAUGAGUGAUGUUCAUAUUUA [JR_ExcArginiA_Sub012]” is 1.6-fold lower in “apparent KD of K4 kissing-loop reporter” value: 149 nM for the first, 95.4 nM for the second.

“AGACCACAAAGUGGUCAGUGUUCGCUCCGGCGAGGACCGGUACGGCCGCCACUCGCGAGUGAUGUUCGCGAGUGGAGCGAACACA [Omei KL Tryp A Exc A v1]” and “GUUAUGGACCUGGAUACCAGCUGGUACUAAGUGGGAGAAUGAAAGUGAUGUUUUCGUGCUAGCCCUUGGCAGCCAGCAACCCGCA [XTheo-B7]” are within 1.5-fold of each other in “apparent KD of K4 kissing-loop reporter” value: 88.8 nM for the first, 104 nM for the second.

“AAUUUAUUAACUGAUACCAGACUUUAGCGUGUUUAUAAGUCAAGUGAUGUUUGACUAUUAGUCCCUUGGCAGCAGUAUUUAUUAA [JR_SSTheophyB_Sub022]” and “AACCACUCGUUACAUCACUAUCGAGUGGAACGAGGACCGGUACGGCCGCCACUCGGUAUCUUGCAGUGAUGUUGCAAGAAAGAAU [KL-SSTryp-A #dotplot2 strengthened]” are within 1.5-fold of each other in “apparent KD of K4 kissing-loop reporter” value: 149 nM for the first, 212 nM for the second.

Going from “UACUAACGUUAAGGAUAUGCGUCGAUUACCGGUAAGUGAUGUUUAGCGCCCGGGCAACGGUGGGUCGCAGAAGGUAAACACAGUU [theeternabot_sameState_KL_FMN_B_19]” to “AAGGGCUAGGCGGCCGCCACUGGUCGUGUACACAUACGAACCAGUGAUGUUGGUAUUGUAUGCGACAGGACCGGGCCUAGCCGAA [Exclusion - Tryptophan B (Freestyle 27)]”, the “apparent KD of K4 kissing-loop reporter” value falls from 689 nM to 313 nM (2.2-fold).

Going from “CGGAUGUAGUGAUGUUAUAUUAGAUGUAGACGAGGACCGGUACGGCCGCCACUCGUAACGGCUGCUAGCGCGUUGCGAGGUGUGC [ExTryptoA.Cl]” to “AAGUGAUGUUGUAGUGAUGUUGUGAUGUUGCAGGAUAUAUAGUGAUGUAGAAGGGUAAGGACUGUUUUUUUUUUUGAGUGAUGUU [ookooyzrmullin]”, the “apparent KD of K4 kissing-loop reporter” value falls from 642 nM to 94.2 nM (6.8-fold).

In the case of “UAUGAAGGUGGAGGAUAUUGAUUGAAUCUUGGUCAGGAGUGAUGUUCCGGGAAGCCUUGGAUUCAUCGAGAAGGCCAAGGAUAGU [Extra 3]”, the “apparent KD of K4 kissing-loop reporter” value was 123 nM.

same assay, conditions: Eterna round: R107; input ligand: arginine 13.2 mM

First: AUAAUUAUGACGGCCGCCACUGAGAGUAGUGAUGUUACUCUUUUCCUUUAGUAAUAAUUUUUUAUCAGGACCGGGUUAUUUGAAU [JR_Nu_ExcTryptoB_Sub027]
Second: AAUAAGGUCGCCGAUACCAGCGCAGGCAGAGCAAAGCUCUGCCGGGUAGUGAUGUUACCGCGCCCUUGGCAGCGGUGGCACGACC [Omei KL Theo B SS C v1]
The “apparent KD of K4 kissing-loop reporter” value of the first is 6.5-fold lower: 67.2 nM for the first, 435 nM for the second.

Going from “GCUGAGGAGUGAUGUUCCAAGUGAUGUUAACGAGGACCGGUACGGCCGCCACUCGAUACGGCCGGACCGUAAGAUAAACUACAGC [Same State - Tryptophan A (Freestyle 7)]” to “UCAUGUGCCAGUGAUGUUGGCGUACGUGAUACCAGACGAAUAAAAGUCCCUUGGCAGCACAAAUAAGCCAAGAUAGAUGAAUGAU [Exclusion Theophylline A GF 1]”, the “apparent KD of K4 kissing-loop reporter” value falls from 281 nM to 125 nM (2.2-fold).

Going from “UGGAUAUAGUGAUGUUAUAUAGAGAUAGAUACCAGUUAAGAGAAUAGCCCUUGGCAGCUGAAAGAAGUAUCAUUAGAGAAGAAUG [ExTheophyl.Ab]” to “GCCGUAGAUUGAAGGAGCGUGGAACUAUGGCUUGAACAGUGAUGUUGUUUAUCUAGGUAGCCGCAGGUAGGUCGCAAUCUACGGC”, the “apparent KD of K4 kissing-loop reporter” value rises from 147 nM to 250 nM (1.7-fold).

First: ACCUACCAUUAGUGAUGUUAAUGGACGGAAGGAGCGCGGAUAUCUGCAGGUAGGUCGCCGAAGGCUAGACAUUGUCUAGCCAUUA [AK1 SS Arginine A]
Second: UUUCUUUUAAUAACACUUUAUACAACUGAAGGAGCGACAAUAAAGUCAGGUAGGUCGCAGAAUUAAUGAGUGAUGUUCAUAUUUA [JR_ExcArginiA_Sub012]
The “apparent KD of K4 kissing-loop reporter” value of the first is 1.7-fold lower: 113 nM for the first, 197 nM for the second.

“AGACCACAAAGUGGUCAGUGUUCGCUCCGGCGAGGACCGGUACGGCCGCCACUCGCGAGUGAUGUUCGCGAGUGGAGCGAACACA [Omei KL Tryp A Exc A v1]” and “GUUAUGGACCUGGAUACCAGCUGGUACUAAGUGGGAGAAUGAAAGUGAUGUUUUCGUGCUAGCCCUUGGCAGCCAGCAACCCGCA [XTheo-B7]” are within 1.5-fold of each other in “apparent KD of K4 kissing-loop reporter” value: 78 nM for the first, 83.6 nM for the second.

Going from “AAUUUAUUAACUGAUACCAGACUUUAGCGUGUUUAUAAGUCAAGUGAUGUUUGACUAUUAGUCCCUUGGCAGCAGUAUUUAUUAA [JR_SSTheophyB_Sub022]” to “AACCACUCGUUACAUCACUAUCGAGUGGAACGAGGACCGGUACGGCCGCCACUCGGUAUCUUGCAGUGAUGUUGCAAGAAAGAAU [KL-SSTryp-A #dotplot2 strengthened]”, the “apparent KD of K4 kissing-loop reporter” value rises from 131 nM to 199 nM (1.5-fold).

First: UACUAACGUUAAGGAUAUGCGUCGAUUACCGGUAAGUGAUGUUUAGCGCCCGGGCAACGGUGGGUCGCAGAAGGUAAACACAGUU [theeternabot_sameState_KL_FMN_B_19]
Second: AAGGGCUAGGCGGCCGCCACUGGUCGUGUACACAUACGAACCAGUGAUGUUGGUAUUGUAUGCGACAGGACCGGGCCUAGCCGAA [Exclusion - Tryptophan B (Freestyle 27)]
The “apparent KD of K4 kissing-loop reporter” value of the first is 2.8-fold higher: 551 nM for the first, 194 nM for the second.

Compared with “CGGAUGUAGUGAUGUUAUAUUAGAUGUAGACGAGGACCGGUACGGCCGCCACUCGUAACGGCUGCUAGCGCGUUGCGAGGUGUGC [ExTryptoA.Cl]”, “AAGUGAUGUUGUAGUGAUGUUGUGAUGUUGCAGGAUAUAUAGUGAUGUAGAAGGGUAAGGACUGUUUUUUUUUUUGAGUGAUGUU [ookooyzrmullin]” is 15-fold lower in “apparent KD of K4 kissing-loop reporter” value: 611 nM for the first, 41.4 nM for the second.

For “UAUGAAGGUGGAGGAUAUUGAUUGAAUCUUGGUCAGGAGUGAUGUUCCGGGAAGCCUUGGAUUCAUCGAGAAGGCCAAGGAUAGU [Extra 3]”, the “apparent KD of K4 kissing-loop reporter” value was 344 nM.

same assay, conditions: Eterna round: R107; input ligand: none

Going from “AUAAUUAUGACGGCCGCCACUGAGAGUAGUGAUGUUACUCUUUUCCUUUAGUAAUAAUUUUUUAUCAGGACCGGGUUAUUUGAAU [JR_Nu_ExcTryptoB_Sub027]” to “AAUAAGGUCGCCGAUACCAGCGCAGGCAGAGCAAAGCUCUGCCGGGUAGUGAUGUUACCGCGCCCUUGGCAGCGGUGGCACGACC [Omei KL Theo B SS C v1]”, the “apparent KD of K4 kissing-loop reporter” value rises from 70.2 nM to 340 nM (4.8-fold).

Going from “GCUGAGGAGUGAUGUUCCAAGUGAUGUUAACGAGGACCGGUACGGCCGCCACUCGAUACGGCCGGACCGUAAGAUAAACUACAGC [Same State - Tryptophan A (Freestyle 7)]” to “UCAUGUGCCAGUGAUGUUGGCGUACGUGAUACCAGACGAAUAAAAGUCCCUUGGCAGCACAAAUAAGCCAAGAUAGAUGAAUGAU [Exclusion Theophylline A GF 1]”, the “apparent KD of K4 kissing-loop reporter” value falls from 288 nM to 132 nM (2.2-fold).

“UGGAUAUAGUGAUGUUAUAUAGAGAUAGAUACCAGUUAAGAGAAUAGCCCUUGGCAGCUGAAAGAAGUAUCAUUAGAGAAGAAUG [ExTheophyl.Ab]” and “GCCGUAGAUUGAAGGAGCGUGGAACUAUGGCUUGAACAGUGAUGUUGUUUAUCUAGGUAGCCGCAGGUAGGUCGCAAUCUACGGC” are within 1.5-fold of each other in “apparent KD of K4 kissing-loop reporter” value: 207 nM for the first, 270 nM for the second.

“ACCUACCAUUAGUGAUGUUAAUGGACGGAAGGAGCGCGGAUAUCUGCAGGUAGGUCGCCGAAGGCUAGACAUUGUCUAGCCAUUA [AK1 SS Arginine A]” and “UUUCUUUUAAUAACACUUUAUACAACUGAAGGAGCGACAAUAAAGUCAGGUAGGUCGCAGAAUUAAUGAGUGAUGUUCAUAUUUA [JR_ExcArginiA_Sub012]” are within 1.5-fold of each other in “apparent KD of K4 kissing-loop reporter” value: 131 nM for the first, 121 nM for the second.
